The supplement of paper PMC7877785
± gives the uncertainty stated by the source.

Assay: self-splicing fitness, log relative to wild type (ln ratio); higher = more splicing; Tetrahymena group I intron in knt gene, E. coli kanamycin selection, DiMSum; sequences stand for … in CUCUCU…GGAGGGAAAAGUUAUCAGGCAUGCACCUGGUAGCUAGUCUUUAAACCAAUAGAUUGCAUCGGUUUAAAAGGCAAGACCGUCAAAUUGCGGGAAAGGGGUCAACAGCCGUUCAGUACCAAGUCUCAGGGGAAACUUUGAGAUGGCCUUGCAAAGGGUAUGGUAAUAAGCUGACGGACAUGGUCCUAACCACGCAGCCAAGUCCUAAGUCAACAGAUCUUCUGUUGAUAUGGAUGCAGUUCACAGACUAAAUGUCGGUCGGGGAAGAUGUAUUCUUCUCAUAAGAUAUAGUCGGACCUCUCCUUAAUGGGAGCUAGCGGAUGAAGUGAUGCAACACUGGAGCCGCUGGGAACUAAUUUGUAUGCGAAAGUAUAUUGAUUAGUUUUGGAGUACUCGUGGUCG
In short: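 Colonies from six replicate transformations of E. coli BL21(DE3) were pooled and amplicon-sequenced on an Illumina HiSeq 2500. The library placed an intron with all eight P1ex-region nucleotides randomised inside the knt kanamycin-resistance gene on pET-22b(+), and cells grew overnight at 37°C or 30°C on LB agar with or without 25 μg/mL kanamycin (plus 100 μg/mL carbenicillin, 50 μM IPTG, 0.2% rhamnose). Fitness is the DiMSum error-weighted combination of wild-type-normalised replicate fold changes, kanamycin versus none.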

Row | Sequence | self-splicing fitness (ln) (30 °C) | self-splicing fitness (ln) (37 °C)
1 | CGGUAGCAAUAUUACGCGAA | -2.83 ± 0.25 | -1.28 ± 0.19
2 | CGGUAGCAAUAUUACGCUAA | -2.88 ± 0.28 | -1.85 ± 0.18
3 | CGGUAGCAAUAUUACGCUUU | -3.21 ± 0.27 | -0.482 ± 0.12
4 | CGGUAGCAAUAUUACGGAGA | -3.87 ± 0.32 | -2.72 ± 0.21
5 | CGGUAGCAAUAUUACGGAGG | -2.24 ± 0.087 | -0.94 ± 0.09
6 | CGGUAGCAAUAUUACGGAUC | -4.27 ± 0.33 | -1.68 ± 0.23
7 | CGGUAGCAAUAUUACGGCAC | -2.11 ± 0.26 | -1.99 ± 0.36
8 | CGGUAGCAAUAUUACGGUAA | -2.99 ± 0.29 | -3.12 ± 0.3
9 | CGGUAGCAAUAUUACGUGGG | -3.79 ± 0.17 | -3.11 ± 0.14
10 | CGGUAGCAAUAUUACGUGUG | -0.17 ± 0.062 | 0.0947 ± 0.09
11 | CGGUAGCAAUAUUACGUUGG | -1.26 ± 0.091 | -0.39 ± 0.084
12 | CGGUAGCAAUAUUACGUUUA | -3.46 ± 0.2 | -2.03 ± 0.13
13 | CGGUAGCAAUAUUACGUUUU | -3.83 ± 0.26 | -2.41 ± 0.19
14 | CGUAAGCAAUAUUACGAAAC | -2.84 ± 0.32 | 
15 | CGUAAGCAAUAUUACGAACC | -0.935 ± 0.24 | -1.46 ± 0.24
16 | CGUAAGCAAUAUUACGACUC | -3.64 ± 0.3 | -0.95 ± 0.17
17 | CGUAAGCAAUAUUACGAGUA | -4.09 ± 0.39 | -1.93 ± 0.21
18 | CGUAAGCAAUAUUACGAUUU | -2.66 ± 0.14 | -1.58 ± 0.12
19 | CGUAAGCAAUAUUACGCAAG | -1.99 ± 0.13 | -1.01 ± 0.13
20 | CGUAAGCAAUAUUACGCCAU | -3.78 ± 0.24 | -2.7 ± 0.23
21 | CGUAAGCAAUAUUACGCCCA | -1.83 ± 0.19 | -0.135 ± 0.24
22 | CGUAAGCAAUAUUACGCCCU | -1.4 ± 0.16 | -0.426 ± 0.16
23 | CGUAAGCAAUAUUACGCCUC | -4.31 ± 0.47 | -1.44 ± 0.44
24 | CGUAAGCAAUAUUACGCUUA | -3.67 ± 0.37 | -2.91 ± 0.23

Row | Sequence | self-splicing fitness (ln) (30 °C) | self-splicing fitness (ln) (37 °C)
25 | CGUAAGCAAUAUUACGGAAU | -3.8 ± 0.43 | -1.85 ± 0.22
26 | CGUAAGCAAUAUUACGGAGU | -3.13 ± 0.17 | -2.89 ± 0.19
27 | CGUAAGCAAUAUUACGGCAU | -3.27 ± 0.27 | -2.37 ± 0.15
28 | CGUAAGCAAUAUUACGGUCC | -2.31 ± 0.18 | -2.18 ± 0.24
29 | CGUAAGCAAUAUUACGGUGA | -3.29 ± 0.17 | -3.18 ± 0.22
30 | CGUAAGCAAUAUUACGGUGC | -2.65 ± 0.15 | -3.7 ± 0.31
31 | CGUCAGCAAUAUUACGAAAG | -0.9 ± 0.073 | 0.129 ± 0.096
32 | CGUCAGCAAUAUUACGAAUU | -2.82 ± 0.2 | -0.915 ± 0.14
33 | CGUCAGCAAUAUUACGACGA | -1.34 ± 0.2 | -1.2 ± 0.21
34 | CGUCAGCAAUAUUACGAGAA | -2.97 ± 0.38 | -2.09 ± 0.29
35 | CGUCAGCAAUAUUACGAGCU | -3.17 ± 0.13 | -1.45 ± 0.13
36 | CGUCAGCAAUAUUACGAUGG | -1.27 ± 0.054 | -0.0354 ± 0.084
37 | CGUCAGCAAUAUUACGCCAA | -3.6 ± 0.3 | -1.73 ± 0.18
38 | CGUCAGCAAUAUUACGCUAG | -0.963 ± 0.098 | -0.795 ± 0.15
39 | CGUCAGCAAUAUUACGCUGG | -2.6 ± 0.3 | -2.14 ± 0.34
40 | CGUCAGCAAUAUUACGGAGA | -3.44 ± 0.29 | -2.76 ± 0.27
41 | CGUCAGCAAUAUUACGGGGC | -2.73 ± 0.2 | -3.05 ± 0.32
42 | CGUCAGCAAUAUUACGGUGC | -2.31 ± 0.11 | -3.54 ± 0.31
43 | CGUCAGCAAUAUUACGUACU | -0.663 ± 0.1 | -0.361 ± 0.12
44 | CGUCAGCAAUAUUACGUAGA | -1.3 ± 0.069 | -0.865 ± 0.1
45 | CGUCAGCAAUAUUACGUAGC | -2.81 ± 0.12 | -2.29 ± 0.14
46 | CGUCAGCAAUAUUACGUCGC | -3.45 ± 0.34 | -1.88 ± 0.36
47 | CGUCAGCAAUAUUACGUGGU | -3.59 ± 0.12 | -2.5 ± 0.13
